Assay results published in patent publication US20260263520A1 (OSLO UNIVERSITETSSYKEHUS HF, published 2026).

Molecular target: antigen derived from p95HER2 (protein sequence …)
Test: indirect ELISA, antigen coated at 2.5 ug/mL, antibody in 3-fold dilutions from 3.0 ug/mL, absorbance at 450 nm
Description: Antibody binding was determined by indirect ELISA. A microtitre plate was coated with 50 μL antigen (protein sequence: […]) (SEQ ID NO: 36) at 2.5 μg/mL for 1 hour with shaking at 300 rpm then blocked with 200 μL 1% casein in PBS for 16 hours at 4° C. The plate was washed twice with PBS containing 0.05% Tween-20. In a separate offline microplate, antibody test samples were prepared in duplicate in a 3-fold serial dilution starting at 3.0 ug/mL. 50 μL of each test sample was transferred to the assay plate and incubated for 1 hour with shaking at 300 rpm. The plate was washed four times with PBS containing 0.05% Tween-20. 50 μL of horse radish peroxidase (HRP) labelled anti-human IgG antibody (catalogue number A8792, Sigma) at a dilution of 1:4000 was added to each well and incubated for 1 hour with shaking at 300 rpm. The plate was washed four times with PBS containing 0.05% Tween-20 and twice with water. 100 μL Tetramethylbenzidine (TMB) substrate (catalogue number 10076433, Fisher) was added and incubated for 10 minutes. The reaction was stopped by addition of 50 μL IM HCl and absorbance was measured at 450 nm using a Byonoy plate reader.

binding result	Binder
binds	parental Oslo-2 monoclonal antibody (antibody, V domains shown, also called Oslo-2 antibody; Oslo-2 parental antibody) VH: EVQILETGGGLVKPGGSLRLSCATSGFNFNDYFMNWVRQAPGKGLEWIAQIRNKNYNYATYFAESLEGRFTISRDDSKSSVYLQVNSLRAEDTALYYCTELRYDYWGQGVMVTVSS VL: DIVMTQSPFSLAVSEGEMVTINCKSSQSLLSSGNQKNNLAWYQQKPGQSPKLLIYYASTRQSGVPDRFIGSGSGTDFTLTISDVQAEDLADYYCLQHYSSPYTFGAGTKLELK
binds	Oslo-2 mAb variant Mutant 4 (L:S31W/L:H107W) (antibody, V domains shown, Only variable domains are tied to the molecule; also called Variant 4; variant 4) VH: EVQILETGGGLVKPGGSLRLSCATSGFNFNDYFMNWVRQAPGKGLEWIAQIRNKNYNYATYFAESLEGRFTISRDDSKSSVYLQVNSLRAEDTALYYCTELRYDYWGQGVMVTVSS VL: DIVMTQSPFSLAVSEGEMVTINCKSSQSLLWSGNQKNNLAWYQQKPGQSPKLLIYYASTRQSGVPDRFIGSGSGTDFTLTISDVQAEDLADYYCLQWYSSPYTFGAGTKLEIK
binds	Oslo-2 mAb variant Mutant 5 (L:S31M) (antibody, V domains shown, Only variable domains are tied to the molecule; also called Variant 5; variant 5) VH: EVQILETGGGLVKPGGSLRLSCATSGFNFNDYFMNWVRQAPGKGLEWIAQIRNKNYNYATYFAESLEGRFTISRDDSKSSVYLQVNSLRAEDTALYYCTELRYDYWGQGVMVTVSS VL: DIVMTQSPFSLAVSEGEMVTINCKSSQSLLMSGNQKNNLAWYQQKPGQSPKLLIYYASTRQSGVPDRFIGSGSGTDFTLTISDVQAEDLADYYCLQHYSSPYTFGAGTKLEIK
